Laboratory results reported in the supplement of paper PMC9112550, “Optimization of the antimicrobial peptide Bac7 by deep mutational scanning” (BMC Biology, 2022).

system: Escherichia coli TOP10; assay: shrunken log2 fold change of peptide-encoding DNA abundance (4.5 h post-induction vs induction); higher = less antimicrobial activity (less host growth inhibition); conditions: time post-induction: 4.5 h; library: site-saturation at positions 5, 18, 19, 20
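Further: peptides expressed intracellularly from a pBAD plasmid library in pooled LB shake-flask culture, induced with 0.3% L-arabinose, DNA abundance read by NGS, three biological replicates, DESeq2 with apeglm shrinkage.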

| Sequence | shrunken log2 fold change |
| --- | --- |
| RRIRERPPRLPRPRPRPRCMPRP | -0.355 |
| RRIRYRPPRLPRPRPRPFGSPRP | -0.0685 |
| RRIRPRPPRLPRPRPRPTSHPRP | -0.235 |
| RRIRGRPPRLPRPRPRPCHAPRP | 0.274 |
| RRIRYRPPRLPRPRPRPVWAPRP | 0.205 |
| RRIRCRPPRLPRPRPRPPSCPRP | -0.0847 |
| RRIRPRPPRLPRPRPRPLPKPRP | 0.216 |
| RRIRRRPPRLPRPRPRPYRYPRP | 0.0464 |
| RRIRRRPPRLPRPRPRPLQLPRP | -0.101 |
| RRIRARPPRLPRPRPRPWTPPRP | 0.123 |
| RRIRLRPPRLPRPRPRPGDPPRP | 0.251 |
| RRIRLRPPRLPRPRPRPACTPRP | -0.128 |
| RRIRLRPPRLPRPRPRPEDVPRP | -0.0818 |
| RRIRLRPPRLPRPRPRPYLWPRP | -0.0439 |
| RRIRNRPPRLPRPRPRPMIQPRP | -0.715 |
| RRIRRRPPRLPRPRPRPNTIPRP | -0.372 |
| RRIRQRPPRLPRPRPRPNLSPRP | -0.258 |
| RRIRWRPPRLPRPRPRPDCCPRP | 0.777 |
| RRIRGRPPRLPRPRPRPAEVPRP | 0.31 |
| RRIRKRPPRLPRPRPRPHAKPRP | 0.226 |

| Sequence | shrunken log2 fold change |
| --- | --- |
| RRIRQRPPRLPRPRPRPCIPPRP | 0.00582 |
| RRIRMRPPRLPRPRPRPSLYPRP | -0.126 |
| RRIRQRPPRLPRPRPRPPFWPRP | 0.504 |
| RRIRNRPPRLPRPRPRPSQEPRP | 0.299 |
| RRIRWRPPRLPRPRPRPSKNPRP | -0.158 |
| RRIRKRPPRLPRPRPRPTLSPRP | 0.0214 |
| RRIRKRPPRLPRPRPRPIHHPRP | 0.0077 |
| RRIRLRPPRLPRPRPRPMIFPRP | 0.0629 |
| RRIRRRPPRLPRPRPRPCRGPRP | 0.17 |
| RRIRVRPPRLPRPRPRPLRAPRP | 0.719 |
| RRIRPRPPRLPRPRPRPTTWPRP | 0.176 |
| RRIRNRPPRLPRPRPRPQMKPRP | -0.281 |
| RRIRPRPPRLPRPRPRPMPKPRP | 0.409 |
| RRIRDRPPRLPRPRPRPRLKPRP | 0.411 |
| RRIRVRPPRLPRPRPRPYLKPRP | -0.0795 |
| RRIRLRPPRLPRPRPRPAHQPRP | -0.0828 |
| RRIRKRPPRLPRPRPRPKTFPRP | -0.124 |
| RRIRARPPRLPRPRPRPTHSPRP | 0.459 |
| RRIRTRPPRLPRPRPRPFLCPRP | -0.978 |
| RRIRRRPPRLPRPRPRPQCVPRP | 0.0427 |

| Sequence | shrunken log2 fold change |
| --- | --- |
| RRIRNRPPRLPRPRPRPTDQPRP | 0.362 |
| RRIRQRPPRLPRPRPRPLKYPRP | -0.0559 |
| RRIRVRPPRLPRPRPRPFPEPRP | -0.24 |
| RRIRNRPPRLPRPRPRPLHAPRP | -0.0128 |
| RRIRMRPPRLPRPRPRPSRGPRP | 0.732 |
| RRIRTRPPRLPRPRPRPCQWPRP | -0.107 |
| RRIRLRPPRLPRPRPRPGHPPRP | 0.0236 |
| RRIRQRPPRLPRPRPRPMPNPRP | -0.215 |
| RRIRHRPPRLPRPRPRPITMPRP | -0.18 |
| RRIRKRPPRLPRPRPRPFNCPRP | 0.0153 |
| RRIRRRPPRLPRPRPRPYVQPRP | 0.0531 |
| RRIRNRPPRLPRPRPRPHMAPRP | -0.401 |
| RRIRQRPPRLPRPRPRPVKWPRP | 0.746 |
| RRIRFRPPRLPRPRPRPNRIPRP | -0.619 |
| RRIRCRPPRLPRPRPRPRVSPRP | 0.064 |
| RRIRPRPPRLPRPRPRPESHPRP | -0.00995 |
| RRIRERPPRLPRPRPRPCNDPRP | -0.19 |
| RRIRPRPPRLPRPRPRPAKKPRP | 0.0429 |
| RRIRQRPPRLPRPRPRPLKGPRP | -0.272 |
| RRIRARPPRLPRPRPRPHFNPRP | 0.122 |
